Data reported in publication PMC4358366, “Identification of ‘erasers’ for lysine crotonylated histone marks using a chemical proteomics approach” (eLife, 2014).

Target: T1, Sirt3 F180L (Homo sapiens, UniProt Q9NTG7, F180L)
T1 construct: His tag (from pTrcHis 2C vector; nickel column purification); made in house; host or cells: E. coli Rosetta
T1 sequence (Q9NTG7 102-399 F180L): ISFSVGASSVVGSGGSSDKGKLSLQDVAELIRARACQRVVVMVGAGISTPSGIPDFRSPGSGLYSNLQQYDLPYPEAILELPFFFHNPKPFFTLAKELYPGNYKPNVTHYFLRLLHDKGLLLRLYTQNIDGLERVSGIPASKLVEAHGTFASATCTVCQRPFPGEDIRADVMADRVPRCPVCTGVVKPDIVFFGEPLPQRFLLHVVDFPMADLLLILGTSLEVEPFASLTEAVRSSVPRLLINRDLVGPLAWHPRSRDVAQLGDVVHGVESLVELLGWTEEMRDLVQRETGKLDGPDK
Assay: Steady state kinetics of deacetylation by Sirt3 F180L mutant
Type: biochemical
Conditions: F180L vs wild-type Sirt3 (H3K4Ac, Figure 4—figure supplement 6)
Protocol: Plasmids of Sirt1 (193–747), Sirt2 (36–356), Sirt5 (34–302), and Sirt6 (1–314) for Escherichia coli expression were generated as previously described ([Finnin et al., 2001]; [Du et al., 2011]; [Hubbard et al., 2013]; [Jiang et al., 2013]). […] Sirt3 mutant F180L was generated by site directed mutagenesis. All of the proteins were expressed in E. coli Rosetta cells. To induce expression of target proteins, isopropyl β-D-1-thiogalactopyranoside was added to a final concentration of 0.2 mM when OD600 reached 0.6, and the culture was grown at 15 °C (Sirt3 at 25 °C) for 16–18 hr. Cells were harvested and resuspended in lysis buffer A (50 mM Tris–HCl, pH 7.5, 500 mM NaCl, 1 mM PMSF, and Roche EDTA free protease inhibitors, for Sirt1, Sirt2, and Sirt6) or buffer B (50 mM Tris–HCl, pH 7.5, 150 mM NaCl, 1 mM PMSF, and Roche EDTA free protease inhibitors, for Sirt3 and Sirt5). […]
Enzyme was incubated with different concentrations of corresponding peptides bearing two tryptophans at the C terminus (20, 40, 60, 80, 100, 200, and 500 μM) and 1.0 mM NAD in 20 mM Tris–HCl buffer (pH 7.5) containing 1 mM DTT in 25 μL reaction at 37°C for a certain period of time within the initial linear range. […] Samples were then analyzed by HPLC with a Vydac 218TP C18 column (4.6 mm×250 mm, 5 μm; Grace Davison). […]

- decrease in deacetylation activity caused by F180L mutation: about a two-fold decrease
B1: Sirt3 F180L: Sirt3 mutant with Phe180 mutated to leucine (protein, UniProt Q9NTG7 1-399, looked up, variant F180L)
chain: MAFWGWRAAAALRLWGRVVERVEAGGGVGPFQACGCRLVLGGRDDVSAGLRGSHGARGEPLDPARPLQRPPRPEVPRAFRRQPRAAAPSFFFSSIKGGRRSISFSVGASSVVGSGGSSDKGKLSLQDVAELIRARACQRVVVMVGAGISTPSGIPDFRSPGSGLYSNLQQYDLPYPEAILELPFFFHNPKPFFTLAKELYPGNYKPNVTHYFLRLLHDKGLLLRLYTQNIDGLERVSGIPASKLVEAHGTFASATCTVCQRPFPGEDIRADVMADRVPRCPVCTGVVKPDIVFFGEPLPQRFLLHVVDFPMADLLLILGTSLEVEPFASLTEAVRSSVPRLLINRDLVGPLAWHPRSRDVAQLGDVVHGVESLVELLGWTEEMRDLVQRETGKLDGPDK
